According to paper PMC11574045, “A cofactor-induced repressive type of transcription factor condensation can be induced by synthetic peptides to suppress tumorigenesis” (The EMBO Journal, 2024):

B1: ZNF563 (protein, UniProt Q8TA94 1-476, looked up)
Zinc finger protein 563: MDAVAFEDVAVNFTQEEWALLGPSQKNLYRYVMQETIRNLDCIRMIWEEQNTEDQYKNPRRNLRCHMVERFSESKDSSQCGETFSLIRDSIVNNSICPGEDPCQSAECEEVIMGHLSLNSHIRVDSGHKPHEYQEYGEKPHTHKQRGKAFSYHHSFQSRGRPHTGKKRYECKECGKTFSSRRNLRRHMVVQGGNRPYKCKLCGKAFFWPSLLRMHERTHTGEKPYECKQCSKAFPFYSSYRRHERMHTGEKPYECKQCSKALPDSSSYIRHERTHTGEKPYTCKQCGKAFSVSSSLRRHETTHSAEKPYECKQCGKTFHHLGSFQIHMKRHTGDRPHKCKICGKGFDRPSLVRYHERIHTGEKPYECKQCGKTLSHSSSFRRHMIMHTGGGPHKCKICGKAFVYPSVCQRHEKSHSGEKPYECKQCGKALSHSSSFRRHMVMHTGDGPNKCKVCGKAFVYPSVCQRHEKTHWRETI
B2: ZNF473 (protein, UniProt Q8WTR7 1-871, looked up)
Zinc finger protein 473: MAEEFVTLKDVGMDFTLGDWEQLGLEQGDTFWDTALDNCQDLFLLDPPRPNLTSHPDGSEDLEPLAGGSPEATSPDVTETKNSPLMEDFFEEGFSQEIIEMLSKDGFWNSNFGEACIEDTWLDSLLGDPESLLRSDIATNGESPTECKSHELKRGLSPVSTVSTGEDSMVHNVSEKTLTPAKSKEYRGEFFSYSDHSQQDSVQEGEKPYQCSECGKSFSGSYRLTQHWITHTREKPTVHQECEQGFDRNASLSVYPKTHTGYKFYVCNEYGTTFSQSTYLWHQKTHTGEKPCKSQDSDHPPSHDTQPGEHQKTHTDSKSYNCNECGKAFTRIFHLTRHQKIHTRKRYECSKCQATFNLRKHLIQHQKTHAAKTTSECQECGKIFRHSSLLIEHQALHAGEEPYKCNERGKSFRHNSTLKIHQRVHSGEKPYKCSECGKAFHRHTHLNEHRRIHTGYRPHKCQECVRSFSRPSHLMRHQAIHTAEKPYSCAECKETFSDNNRLVQHQKMHTVKTPYECQECGERFICGSTLKCHESVHAREKQGFFVSGKILDQNPEQKEKCFKCNKCEKTFSCSKYLTQHERIHTRGVKPFECDQCGKAFGQSTRLIHHQRIHSRVRLYKWGEQGKAISSASLIKLQSFHTKEHPFKCNECGKTFSHSAHLSKHQLIHAGENPFKCSKCDRVFTQRNYLVQHERTHARKKPLVCNECGKTFRQSSCLSKHQRIHSGEKPYVCDYCGKAFGLSAELVRHQRIHTGEKPYVCQECGKAFTQSSCLSIHRRVHTGEKPYRCGECGKAFAQKANLTQHQRIHTGEKPYSCNVCGKAFVLSAHLNQHLRVHTQETLYQCQRCQKAFRCHSSLSRHQRVHNKQQYCL
B3: ZNF555 (protein, UniProt Q8NEP9 1-628, looked up)
Zinc finger protein 555: MDSVVFEDVAVDFTLEEWALLDSAQRDLYRDVMLETFQNLASVDDETQFKASGSVSQQDIYGEKIPKESKIATFTRNVSWASVLGKIWDSLSIEDQTTNQGRNLSRNHGLERLCESNDQCGEALSQIPHLNLYKKIPPGVKQYEYNTYGKVFMHRRTSLKSPITVHTGHKPYQCQECGQAYSCRSHLRMHVRTHNGERPYVCKLCGKTFPRTSSLNRHVRIHTAEKTYECKQCGKAFIDFSSLTSHLRSHTGEKPYKCKECGKAFSYSSTFRRHTITHTGEKPYKCKECAEAFSYSSTFRRHMISHTGEKPHKCKECGEAFSYSSAFRRHMITHTGEKPYECKQCGKTFIYLQSFRRHERIHTGEKPYECKQCGKTFIYPQSFRRHERTHGGEKPYECNQCGKAFSHPSSFRGHMRVHTGEKPYECKQCGKTFNWPISLRKHMRTHTREKPYECKQCGKAFSLSACFREHVRMHPEDKSYECKLCGKAFYCHISLQKHMRRHTAEKLYKCKQCGKAFSWPELLQQHVRTHTVEKPYECKECGKVFKWPSSLPIHMRLHTGEKPYQCKHCGKAFNCSSSLRRHVRIHTTEKQYKCNVGHPPANEFMCSASEKSHQERDLIKVVNMVLPL
B4: CCNH (protein, UniProt P51946 1-323, looked up)
Cyclin-H: MYHNSSQKRHWTFSSEEQLARLRADANRKFRCKAVANGKVLPNDPVFLEPHEEMTLCKYYEKRLLEFCSVFKPAMPRSVVGTACMYFKRFYLNNSVMEYHPRIIMLTCAFLACKVDEFNVSSPQFVGNLRESPLGQEKALEQILEYELLLIQQLNFHLIVHNPYRPFEGFLIDLKTRYPILENPEILRKTADDFLNRIALTDAYLLYTPSQIALTAILSSASRAGITMESYLSESLMLKENRTCLSQLLDIMKSMRNLVKKYEPPRSEEVAVLKQKLERCHSAELALNVITKKRKGYEDDDYVSKKSKHEEEEWTDDDLVESL
B5: ZNF501 (protein, UniProt Q96CX3 1-271, looked up)
Zinc finger protein 501: MNSSQISLRMKHGRVNMQKKPSKCSECGKFFTQRSSLTQHQRIHRGEKPYVCSECGSCFRKQSNLTQHLRIHTGEKPYKCNECEKAFQTKAILVQHLRIHTGEKPYKCNECGKAFCQSPSLIKHQRIHTGEKPYKCTECGKAFSQSICLTRHQRSHSGDKPFKCNECGKAFNQSACLMQHQRIHSGEKPYTCTECGKAFTQNSSLVEHERTHTGEKLYKCSECEKTFRKQAHLSEHYRIHTGEKPYECVGCGKSFRHSSALLRHQRLHAGE
B6: ZNF512 (protein, UniProt Q96ME7 1-567, looked up)
Zinc finger protein 512: MSSRLGAVPATSGPTTFKQQRSTRIVGAKNSRTQCSIKDNSFQYTIPHDDSLSGSSSASSCEPVSDFPASFRKSTYWMKMRRIKPAATSHVEGSGGVSAKGKRKPRQEEDEDYREFPQKKHKLYGRKQRPKTQPNPKSQARRIRKEPPVYAAGSLEEQWYLEIVDKGSVSCPTCQAVGRKTIEGLKKHMENCKQEMFTCHHCGKQLRSLAGMKYHVMANHNSLPILKAGDEIDEPSERERLRTVLKRLGKLRCMRESCSSSFTSIMGYLYHVRKCGKGAAELEKMTLKCHHCGKPYRSKAGLAYHLRSEHGPISFFPESGQPECLKEMNLESKSGGRVQRRSAKIAVYHLQELASAELAKEWPKRKVLQDLVPDDRKLKYTRPGLPTFSQEVLHKWKTDIKKYHRIQCPNQGCEAVYSSVSGLKAHLGSCTLGNFVAGKYKCLLCQKEFVSESGVKYHINSVHAEDWFVVNPTTTKSFEKLMKIKQRQQEEEKRRQQHRSRRSLRRRQQPGIELPETELSLRVGKDQRRNNEELVVSASCKEPEQEPVPAQFQKVKPPKTNHKRGRK
B7: ZNF488 (protein, UniProt Q96MN9 1-340, looked up)
Zinc finger protein 488: MPEWPPCLSVAPALVITMAAGKGAPLSPSAENRWRLSEPELGRGCKPVLLEKTNRLGPEAAVGRAGRDVGSAELALLVAPGKPRPGKPLPPKTRGEQRQSAFTELPRMKDRQVDAQAQEREHDDPTGQPGAPQLTQNIPRGPAGSKVFSVWPSGARSEQRSAFSKPTKRPAERPELTSVFPAGESADALGELSGLLNTTDLACWGRLSTPKLLVGDLWNLQALPQNAPLCSTFLGAPTLWLEHTQAQVPPPSSSSTTSWALLPPTLTSLGLSTQNWCAKCNLSFRLTSDLVFHMRSHHKKEHAGPDPHSQKRREEALACPVCQEHFRERHHLSRHMTSHS
B8: ZNF483 (protein, UniProt Q8TF39 1-744, looked up)
Zinc finger protein 483: MQAVVPLNKMTAISPEPQTLASTEQNEVPRVVTSGEQEAILRGNAADAESFRQRFRWFCYSEVAGPRKALSQLWELCNQWLRPDIHTKEQILELLVFEQFLTILPGEIRIWVKSQHPESSEEVVTLIEDLTQMLEEKDPVSQDSTVSQEENSKEDKMVTVCPNTESCESITLKDVAVNFSRGEWKKLEPFQKELYKEVLLENLRNLEFLDFPVSKLELISQLKWVELPWLLEEVSKSSRLDESALDKIIERCLRDDDHGLMEESQQYCGSSEEDHGNQGNSKGRVAQNKTLGSGSRGKKFDPDKSPFGHNFKETSDLIKHLRVYLRKKSRRYNESKKPFSFHSDLVLNRKEKTAGEKSRKSNDGGKVLSHSSALTEHQKRQKIHLGDRSQKCSKCGIIFIRRSTLSRRKTPMCEKCRKDSCQEAALNKDEGNESGEKTHKCSKCGKAFGYSASLTKHRRIHTGEKPYMCNECGKAFSDSSSLTPHHRTHSGEKPFKCDDCGKGFTLSAHLIKHQRIHTGEKPYKCKDCGRPFSDSSSLIQHQRIHTGEKPYTCSNCGKSFSHSSSLSKHQRIHTGEKPYKCGECGKAFRQNSCLTRHQRIHTGEKPYLCNDCGMTFSHFTSVIYHQRLHSGEKPYKCNQCEKAFPTHSLLSRHQRIHTGVKPYKCKECGKSFSQSSSLNEHHRIHTGEKPYECNYCGATFSRSSILVEHLKIHTGRREYECNECEKTFKSNSGLIRHRGFHSAE
B9: ZNF550 (protein, UniProt Q7Z398 1-422, looked up)
Zinc finger protein 550: MAETKDAAQMLVTFKDVAVTFTREEWRQLDLAQRTLYREVMLETCGLLVSLGHRVPKPELVHLLEHGQELWIVKRGLSHATCAGDRAQVHTREPTTYPPVLSERAFLRGSLTLESSTSSDSRLGRARDEEGLLEMQKGKVTPETDLHKETHLGKVSLEGEGLGTDDGLHSRALQEWLSADVLHECDSQQPGKDALIHAGTNPYKCKQCGKGFNRKWYLVRHQRVHTGMKPYECNACGKAFSQSSTLIRHYLIHTGEKPYKCLECGKAFKRRSYLMQHHPIHTGEKPYECSQCRKAFTHRSTFIRHNRTHTGEKPFECKECEKAFSNRAHLIQHYIIHTGEKPYDCMACGKAFRCSSELIQHQRIHTGEKPYECTQCGKAFHRSTYLIQHSVIHTGEMPYKCIECGKAFKRRSHLLQHQRVHT
B10: ZNF484 (protein, UniProt Q5JVG2 1-852, looked up)
Zinc finger protein 484: MTKSLESVSFKDVTVDFSRDEWQQLDLAQKSLYREVMLENYFNLISVGCQVPKPEVIFSLEQEEPCMLDGEIPSQSRPDGDIGFGPLQQRMSEEVSFQSEININLFTRDDPYSILEELWKDDEHTRKCGENQNKPLSRVVFINKKTLANDSIFEYKDIGEIVHVNTHLVSSRKRPHNCNSCGKNLEPIITLYNRNNATENSDKTIGDGDIFTHLNSHTEVTACECNQCGKPLHHKQALIQQQKIHTRESLYLFSDYVNVFSPKSHAFAHESICAEEKQHECHECEAVFTQKSQLDGSQRVYAGICTEYEKDFSLKSNRQKTPYEGNYYKCSDYGRAFIQKSDLFRCQRIHSGEKPYEYSECEKNLPQNSNLNIHKKIHTGGKHFECTECGKAFTRKSTLSMHQKIHTGEKPYVCTECGKAFIRKSHFITHERIHTGEKPYECSDCGKSFIKKSQLHVHQRIHTGENPFICSECGKVFTHKTNLIIHQKIHTGERPYICTVCGKAFTDRSNLIKHQKIHTGEKPYKCSDCGKSFTWKSRLRIHQKCHTGERHYECSECGKAFIQKSTLSMHQRIHRGEKPYVCTECGKAFFHKSHFITHERIHTGEKPYECSICGKSFTKKSQLHVHQQIHTGEKPYRCAECGKAFTDRSNLFTHQKIHTGEKPYKCSDCGKAFTRKSGLHIHQQSHTGERHYECSECGKAFARKSTLIMHQRIHTGEKPYICNECGKSFIQKSHLNRHRRIHTGEKPYECSDCGKSFIKKSQLHEHHRIHTGEKPYICAECGKAFTIRSNLIKHQKIHTKQKPYKCSDLGKALNWKPQLSMPQKSDNGEVECSMPQLWCGDSEGDQGQLSSI

Tested on: HEK293FT cells transfected with TF library
Test: Screening of TF condensates based on fluorescent puncta
Type: cell-based
Settings: Figure 1B numerical data; TF library screen, one value per transcriptional factor
Summary of the method: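 Puncta scoring used automated confocal imaging of fifty random fields per well, after anti-Flag or anti-GAL4 immunofluorescence (Alexa 488) in PFA-fixed cells. HEK293FT cells carried TF library plasmids delivered with PEI (1.6 μg/ml DNA). At 60 h they were switched for 12 h to glucose-containing or glucose-free medium.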

Molecule	Z score of condensed fraction
B1	-0.4635
B2	-0.9289
B3	-0.894
B4	-0.9342
B5	-1.032
B6	-0.5967
B7	-0.1473
B8	2.279
B9	-0.5599
B10	-0.5495
